IntAct's records for PubMed 11231056

B1: Platelet-activating factor acetylhydrolase IB subunit beta (Mus musculus), P63005 (parent)
chain: MVLSQRQRDELNRAIADYLRSNGYEEAYSVFKKEAELDMNEELDKKYAGLLEKKWTSVIRLQKKVMELESKLNEAKEEFTSGGPLGQKRDPKEWIPRPPEKYALSGHRSPVTRVIFHPVFSVMVSASEDATIKVWDYETGDFERTLKGHTDSVQDISFDHSGKLLASCSADMTIKLWDFQGFECIRTMHGHDHNVSSVAIMPNGDHIVSASRDKTIKMWEVQTGYCVKTFTGHREWVRMVRPNQDGTLIASCSNDQTVRVWVVATKECKAELREHEHVVECISWAPESSYSSISEATGSETKKSGKPGPFLLSGSRDKTIKMWDVSTGMCLMTLVGHDNWVRGVLFHSGGKFILSCADDKTLRVWDYKNKRCMKTLNAHEHFVTSLDFHKTAPYVVTGSVDQTVKVWECR
partner: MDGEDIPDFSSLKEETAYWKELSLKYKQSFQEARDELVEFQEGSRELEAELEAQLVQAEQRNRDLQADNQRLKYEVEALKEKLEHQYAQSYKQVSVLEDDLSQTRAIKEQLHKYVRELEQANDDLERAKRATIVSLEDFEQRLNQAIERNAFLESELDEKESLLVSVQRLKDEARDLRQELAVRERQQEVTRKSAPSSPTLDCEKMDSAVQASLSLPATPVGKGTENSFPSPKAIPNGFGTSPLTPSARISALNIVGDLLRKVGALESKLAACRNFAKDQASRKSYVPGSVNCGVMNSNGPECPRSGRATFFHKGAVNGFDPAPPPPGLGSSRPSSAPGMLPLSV

Variants of: B1
Settings: with ndel1_mouse Ndel1, Q9ERR1

| effect of a mutation on the interaction | Variant |
| --- | --- |
| disrupting interaction | S152W |
| disrupting interaction | H149R |
| disrupting interaction | S169P |
